The results in this text go back to the supplement of paper PMC5998384.

The subject of data set [1] is HeLa Kyoto. Briefly: thermal stability score vs G1/S (z-score of summed log2 fold changes over temperatures); higher = more thermally stable than in G1/S.
Data set [2] concerns HeLa Kyoto. Briefly: solubility change mitosis vs G1/S (difference of NP-40 vs SDS log2 ratios) (log2 ratio difference); higher = more soluble in mitosis.
Data set [3] relates to HeLa Kyoto. Briefly: solubility in G1/S (NP-40 vs SDS abundance) (log2 ratio); higher = more soluble. The following applies: cell cycle stage: G1/S.
The subject of data set [4] is HeLa Kyoto. Put plainly: melting temperature (median over replicates), in situ; higher = more thermally stable.
[5] abbreviates: cell cycle stage: early G1 (4.5 h after nocodazole release).
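Wherever melting temperature (median over replicates), in situ is given: HeLa Kyoto cells synchronized by double thymidine or nocodazole block, proteins quantified by TMT10plex mass spectrometry, three independent biological replicates.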
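Wherever solubility change mitosis vs G1/S (difference of NP-40 vs SDS log2 ratios) is given: synchronized HeLa Kyoto cells (double thymidine block for G1/S, nocodazole release for mitosis), protein amounts in NP-40 versus SDS lysates quantified by mass spectrometry, three biological replicates.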
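Wherever solubility in G1/S (NP-40 vs SDS abundance) is given: HeLa Kyoto cells arrested at G1/S by double thymidine block, proteins quantified by TMT10plex mass spectrometry in mild NP-40 versus SDS extracts, three biological replicates.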
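Wherever thermal stability score vs G1/S (z-score of summed log2 fold changes over temperatures) is given: synchronized HeLa Kyoto cells, proteins quantified by TMT10plex mass spectrometry, three biological replicates, mitosis taken 0.5 h after nocodazole release, G1/S directly after double thymidine block.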

“MGKVNVAKLRYMSRDDFRVLTAVEMGMKNHEIVPGSLIASIASLKHGGCNKVLRELVKHKLIAWERTKTVQGYRLTNAGYDYLALKTLSSRQVVESVGNQMGVGKESDIYIVANEEGQQFALKLHRLGRTSFRNLKNKRDYHKHRHNVSWLYLSRLSAMKEFAYMKALYERKFPVPKPIDYNRHAVVMELINGYPLCQIHHVEDPASVYDEAMELIVKLANHGLIHGDFNEFNLILDESDHITMIDFPQMVSTSHPNAEWYFDRDVKCIKDFFMKRFSYESELFPTFKDIRREDTLDVEVSASGYTKEMQADDELLHPLGPDDKNIETKEGSEFSFSDGEVAEKAEVYGSENESERNCLEESEGCYCRSSGDPEQIKEDSLSEESADARSFEMTEFNQALEEIKGQVVENNSVTEFSEEKNRTENYNRQDGQRVQGGVPAGSDEYEDECPHLIALSSLNREFRPFRDEENVGAMNQYRTRTLSITSSGSAVSCSTIPPELVKQKVKRQLTKQQKSAVRRRLQKGEANIFTKQRRENMQNIKSSLEAASFWGE [RIOK2]”: the thermal stability score with HeLa Kyoto [1] (setting [5]) is -0.571; in the data set on HeLa Kyoto [1] (cell cycle stage: mitosis), -0.171. In addition, the “solubility change mitosis (log2)” value in the data set with HeLa Kyoto [2] was -0.21. For the same sequence, the “solubility in G1/S (log2)” value with HeLa Kyoto [3] is -0.263. The figures for the melting temperature in the data set on HeLa Kyoto [4] (cell cycle stage: G1/S) and in the data set with HeLa Kyoto [4] (cell cycle stage: mitosis) were 52.5 °C and 52 °C, respectively.
As to “MGLADASGPRDTQALLSATQAMDLRRRDYHMERPLLNQEHLEELGRWGSAPRTHQWRTWLQCSRARAYALLLQHLPVLVWLPRYPVRDWLLGDLLSGLSVAIMQLPQGLAYALLAGLPPVFGLYSSFYPVFIYFLFGTSRHISVGTFAVMSVMVGSVTESLAPQALNDSMINETARDAARVQVASTLSVLVGLFQVGLGLIHFGFVVTYLSEPLVRGYTTAAAVQVFVSQLKYVFGLHLSSHSGPLSLIYTVLEVCWKLPQSKVGTVVTAAVAGVVLVVVKLLNDKLQQQLPMPIPGELLTLIGATGISYGMGLKHRFEVDVVGNIPAGLVPPVAPNTQLFSKLVGSAFTIAVVGFAIAISLGKIFALRHGYRVDSNQELVALGLSNLIGGIFQCFPVSCSMSRSLVQESTGGNSQVAGAISSLFILLIIVKLGELFHDLPKAVLAAIIIVNLKGMLRQLSDMRSLWKANRADLLIWLVTFTATILLNLDLGLVVAVIFSLLLVVVRTQMPHYSVLGQVPDTDIYRDVAEYSEAKEVRGVKVFRSSATVYFANAEFYSDALKQRCGVDVDFLISQKKKLLKKQEQLKLKQLQKEEKLRKQAASPKGASVSINVNTSLEDMRSNNVEDCKMMQVSSGDKMEDATANGQEDSKAPDGSTLKALGLPQPDFHSLILDLGALSFVDTVCLKSLKNIFHDFREIEVEVYMAACHSPVVSQLEAGHFFDASITKKHLFASVHDAVTFALQHPRPVPDSPVSVTRL [SLC26A6]”, the thermal stability score with HeLa Kyoto [1] (setting [5]) was -1.84; with HeLa Kyoto [1] (cell cycle stage: mitosis), -2.56. The “solubility change mitosis (log2)” value in the data set with HeLa Kyoto [2] is -0.0476. In the data set on HeLa Kyoto [3], the “solubility in G1/S (log2)” value was -0.00184. In addition, the melting temperature with HeLa Kyoto [4] (cell cycle stage: G1/S) turned out to be 56.6 °C; in the data set with HeLa Kyoto [4] (cell cycle stage: mitosis), 56 °C.
For the sequence “MGLLAFLKTQFVLHLLVGFVFVVSGLVINFVQLCTLALWPVSKQLYRRLNCRLAYSLWSQLVMLLEWWSCTECTLFTDQATVERFGKEHAVIILNHNFEIDFLCGWTMCERFGVLGSSKVLAKKELLYVPLIGWTWYFLEIVFCKRKWEEDRDTVVEGLRRLSDYPEYMWFLLYCEGTRFTETKHRVSMEVAAAKGLPVLKYHLLPRTKGFTTAVKCLRGTVAAVYDVTLNFRGNKNPSLLGILYGKKYEADMCVRRFPLEDIPLDEKEAAQWLHKLYQEKDALQEIYNQKGMFPGEQFKPARRPWTLLNFLSWATILLSPLFSFVLGVFASGSPLLILTFLGFVGAASFGVRRLIGVTEIEKGSSYGNQEFKKKE [AGPAT3]”, the thermal stability score is -0.691 in the data set on HeLa Kyoto [1] (setting [5]) and -1.45 in the data set with HeLa Kyoto [1] (cell cycle stage: mitosis). For the same sequence, the “solubility change mitosis (log2)” value with HeLa Kyoto [2] is -0.0117. The “solubility in G1/S (log2)” value in the data set on HeLa Kyoto [3] is -0.0836. The results for the melting temperature in the data set with HeLa Kyoto [4] (cell cycle stage: G1/S) and in the data set on HeLa Kyoto [4] (cell cycle stage: mitosis) were 52.2 °C and 52.4 °C, respectively.
Consider “MGLLLMILASAVLGSFLTLLAQFFLLYRRQPEPPADEAARAGEGFRYIKPVPGLLLREYLYGGGRDEEPSGAAPEGGATPTAAPETPAPPTRETCYFLNATILFLFRELRDTALTRRWVTKKIKVEFEELLQTKTAGRLLEGLSLRDVFLGETVPFIKTIRLVRPVVPSATGEPDGPEGEALPAACPEELAFEAEVEYNGGFHLAIDVDLVFGKSAYLFVKLSRVVGRLRLVFTRVPFTHWFFSFVEDPLIDFEVRSQFEGRPMPQLTSIIVNQLKKIIKRKHTLPNYKIRFKPFFPYQTLQGFEEDEEHIHIQQWALTEGRLKVTLLECSRLLIFGSYDREANVHCTLELSSSVWEEKQRSSIKTVELIKGNLQSVGLTLRLVQSTDGYAGHVIIETVAPNSPAAIADLQRGDRLIAIGGVKITSTLQVLKLIKQAGDRVLVYYERPVGQSNQGAVLQDNFGQLEENFLSSSCQSGYEEEAAGLTVDTESRELDSEFEDLASDVRAQNEFKDEAQSLSHSPKRVPTTLSIKPLGAISPVLNRKLAVGSHPLPPKIQSKDGNKPPPLKTSEITDPAQVSKPTQGSAFKPPVPPRPQAKVPLPSADAPNQAEPDVLVEKPEKVVPPPLVDKSAEKQAKNVDAIDDAAAPKQFLAKQEVAKDVTSETSCPTKDSSDDRQTWESSEILYRNKLGKWTRTRASCLFDIEACHRYLNIALWCRDPFKLGGLICLGHVSLKLEDVALGCLATSNTEYLSKLRLEAPSPKAIVTRTALRNLSMQKGFNDKFCYGDITIHFKYLKEGESDHHVVTNVEKEKEPHLVEEVSVLPKEEQFVGQMGLTENKHSFQDTQFQNPTWCDYCKKKVWTKAASQCMFCAYVCHKKCQEKCLAETSVCGATDRRIDRTLKNLRLEGQETLLGLPPRVDAEASKSVNKTTGLTRHIINTSSRLLNLRQVSKTRLSEPGTDLVEPSPKHTPNTSDNEGSDTEVCGPNSPSKRGNSTGIKLVRKEGGLDDSVFIAVKEIGRDLYRGLPTEERIQKLEFMLDKLQNEIDQELEHNNSLVREEKETTDTRKKSLLSAALAKSGERLQALTLLMIHYRAGIEDIETLESLSLDQHSKKISKYTDDTEEDLDNEISQLIDSQPFSSISDDLFGPSESV [PDZD8]”, for which the thermal stability score in the data set on HeLa Kyoto [1] (setting [5]) was -1.18; in the data set with HeLa Kyoto [1] (cell cycle stage: mitosis) it was -0.643. Besides, the “solubility change mitosis (log2)” value in the data set with HeLa Kyoto [2] was -0.0986. Besides, in the data set with HeLa Kyoto [3], the “solubility in G1/S (log2)” value is -0.312. The results for the melting temperature in the data set with HeLa Kyoto [4] (cell cycle stage: G1/S) and with HeLa Kyoto [4] (cell cycle stage: mitosis) were 51.8 °C and 52.2 °C, respectively.
Turning to “MGLLSDPVRRRALARLVLRLNAPLCVLSYVAGIAWFLALVFPPLTQRTYMSENAMGSTMVEEQFAGGDRARAFARDFAAHRKKSGALPVAWLERTMRSVGLEVYTQSFSRKLPFPDETHERYMVSGTNVYGILRAPRAASTESLVLTVPCGSDSTNSQAVGLLLALAAHFRGQIYWAKDIVFLVTEHDLLGTEAWLEAYHDVNVTGMQSSPLQGRAGAIQAAVALELSSDVVTSLDVAVEGLNGQLPNLDLLNLFQTFCQKGGLLCTLQGKLQPEDWTSLDGPLQGLQTLLLMVLRQASGRPHGSHGLFLRYRVEALTLRGINSFRQYKYDLVAVGKALEGMFRKLNHLLERLHQSFFLYLLPGLSRFVSIGLYMPAVGFLLLVLGLKALELWMQLHEAGMGLEEPGGAPGPSVPLPPSQGVGLASLVAPLLISQAMGLALYVLPVLGQHVATQHFPVAEAEAVVLTLLAIYAAGLALPHNTHRVVSTQAPDRGWMALKLVALIYLALQLGCIALTNFSLGFLLATTMVPTAALAKPHGPRTLYAALLVLTSPAATLLGSLFLWRELQEAPLSLAEGWQLFLAALAQGVLEHHTYGALLFPLLSLGLYPCWLLFWNVLFWK [GPAA1]”, the thermal stability score with HeLa Kyoto [1] (setting [5]) worked out at 0.0135; in the data set on HeLa Kyoto [1] (cell cycle stage: mitosis) it was 0.0397. The “solubility change mitosis (log2)” value with HeLa Kyoto [2] is -0.232. Moreover, the “solubility in G1/S (log2)” value in the data set on HeLa Kyoto [3] was -0.07. In addition, the melting temperature came out at 53.7 °C in the data set with HeLa Kyoto [4] (cell cycle stage: G1/S) and 53.4 °C in the data set with HeLa Kyoto [4] (cell cycle stage: mitosis).
